# Experimental data from US20170305997A1 (Janssen / Centocor, published 2017).
# What was measured:
# [1] = target: Recombinant human c-Met Fc chimera (human) (UniProt P08581); experiment: SPR, serine scan in the ECB15 context
# [2] = target: T1, human c-Met on cells (human, UniProt P08581 25-1390); experiment: cell-based or functional assay
# [3] = target: T1, human c-Met on cells; experiment: cell-based or functional assay; remark: listed apart in the source
# [4] = target: T1, human c-Met on cells; experiment: cell-based or functional assay; remark: listed apart in the source
# [5] = target: T1, human c-Met on cells; experiment: binding to NCI-H441 cells, anti-His fluorescence
# Procedure: Purified FN3 domains (50 μL/well; 0 to 1000 nM) were added to the cells for 1 hour at 4° C. in duplicate plates. […] Cells were incubated with biotinylated-anti HIS antibody (diluted 1:160 in FACS stain buffer, 50 μL/well, R&D Systems, cat # BAM050) for 30 minutes at 4° C. […] Cells were washed three times with FACS stain buffer (150 μL/well) and left in FACS stain buffer (50 μL/well).
Fold Change of KD against the parent [1],Inhibition of Proliferation of U87-MG cells (IC50) [2],pMet inhibition in H441 cells (IC50) [2],IC50 (nM) (ERK phosphorylation) [3],inhibition of c-Met phosphorylation in NCI-H292 cells (IC50) [4],EC50 [5],Binder
1790 fold,,,,,,A3 F38S (designed binder) LPAPKNLVVSEVTEDSARLSWDDPWAFYESFLIQYQESEKVGEAIVLTVPGSERSYDLTGLKPGTEYTVSIYGVHNVYKDTNMRGLPLSAIFTTAPAPAPAPAPLPAPKNLVVSRVTEDSARLSWTAPDAAFDSFWIRYFESLGSGEAIVLTVPGSERSYDLTGLKPGTEYVVNIMGVKGGKISPPLSAIFTT
,464 nM,1080 nM,2370 nM,610 nM,18.7 nM,P114AR5P74-A5 (designed binder) LPAPKNLVVSRVTEDSARLSWTAPDAAFDSFWIRYDEVVVGGEAIVLTVPGSERSYDLTGLKPGTEYYVNILGVKGGSISVPLSAIFTTHHHHHH
